*: point of attachment. Palmitoyl = CCCCCCCCCCCCCCCC(=O)*
Test: CD spectroscopy in artificial mouse serum (150 mM NaCl, 2.2 mM CaCl2, 1.8 mM 20 kDa PEG)
Type: physicochemical
Conditions: both pure and artificial mouse serum
Experimental: Measurements were done on a Jasco-815 Circular Dichroism spectrometer using 0.5-1 cm path length quartz cuvettes. 500-10 μM of either pure PA or PA mixtures were prepared in 150 mM NaCl and 2.2 mM CaCl2 (and 1.8 mM 20 kDa PEG in select samples) by dilution from a concentrated PA stock (0.5-1 mM, pH 9). Double de-ionized Milli-Q water was used for preparing all solutions. The solutions were then heated at 80° C. for 30 minutes in a water bath and gradually cooled to room temperature. An Accumet XL15 pH meter (Fisher Scientific) coupled with an Orion Ross Ultra semi-micro electrode (8103BNUWP, Thermo Scientific) was used to adjust the pH of the solution to the desired value followed by collection of the CD spectra. Each trace shown was averaged over 3 accumulations and was baseline subtracted using aqueous solutions containing salts only. All spectra are cut-off below 200 nm due to absorption by NaCl and CaCl2. The same procedure was followed for the salt control samples with 3.0 and 4.0 mM CaCl2.
Finally, a medium that accurately replicated the ionic strength and the crowded environment of pure serum and enabled characterization of the PA self assembly behavior using CD and CAC measurements without interference from protein signals was created. This artificial serum solution contains 1.8 mM of 20 kDa PEG, 150 mM NaCl and 2.2 mM CaCl2. […]

Palmitoyl-IAAAEEEEK(DO3A:Gd)-NH2 (Palmitoyl-IAAAEEEEK(DO3A)-NH2; also: DO3A chelates Gd) [PA5]
morphology across pH: remains nanofibers across all measured pH values
